System: high-threshold (HT) trigeminovascular neurons
Assay: Activation and sensitization of central trigeminovascular neurons by cortical spreading depression (CSD), HT neurons
Assay type: in vivo, rat
Conditions: for firing of HT neurons before CSD: 30 mg/kg IV, 4 hours after treatment; for firing of HT neurons after CSD: 6 hours after treatment; for expected CSD-induced activation of the HT neurons: 30 mg/kg IV 4 hours before CSD
Description: Cortical spreading depression (CSD) was induced mechanically by inserting a glass micropipette (tip diameter 25 μm) about 1 mm into the visual cortex for 10 sec. At a propagation rate of 3-5 mm/min, a single wave of CSD was expected to enter the neuronal receptive field within 1-2 min of cortical stimulation. For verification of CSD, cortical activity was recorded (electrocorticogram) with a glass micropipette (0.9% saline, ˜1 megohm, 7 um tip) placed just below the surface of the cerebral cortex (approximately 100 μm). The electrocorticogram electrode was positioned about 6 mm anterior to the visual cortex.
It was diluted in saline to a final dose of 30 mg/kg and administered intravenously (bolus injection, total volume 0.6-0.7 ml). A corresponding human IgG2 isotype control antibody (isotype-conAb) was also diluted in saline to a final dose of 30 mg/kg and administered intravenously (bolus injection, total volume 1.6-2.0 ml).
The experimental protocol included two parts. The first part was designed to compare CGRP-mAb vs isotype-conAb effects on spontaneous and induced activity of naïve trigeminovascular neurons, and the second part was designed to test CGRP-mAb vs isotype-conAb effects on the activation and sensitization of trigeminovascular neurons by CSD. Both parts included sampling of WDR and HT neurons in male and female rats. In the first part, the baseline neuronal profile was established by (a) mapping the dural, cutaneous and corneal receptive field; (b) measuring responses (mean spikes/sec) to mechanical stimulation of the dura (with a fixed force), skin (brush, pressure, pinch) and cornea (brush), and (c) measuring spontaneous firing rate (recorded over 30 min prior to treatment). Once the baseline was established, CGRP-mAb or isotype-conAb were administered and receptive fields were remapped, neuronal responses to stimulation of the dura, skin and cornea were re-examined, and the spontaneous activity rate was re-sampled at 1, 2, 3, and 4 hours post-treatment. The resulting values for each measure were then compared with the respective baseline values obtained before treatment. In the second part, CSD was induced 4 hours after administration of CGRP-mAb or isotype-conAb and 2 hours later (i.e., 6 hours after treatment) receptive field size, spontaneous activity rate, and response magnitude to stimulation of the dura, skin and cornea were measured again. The resulting post-CSD values for each measure were then compared with the respective pre-CSD values obtained at the 4-hour post-treatment time. This part was initiated only in cases in which the physiological condition of the rats (heart rate, blood pressure, respiration, end tidal CO2) and the neuronal isolation signal (signal-to-noise ratio ≥1:3) were stable at the 4-hour post-treatment time point.
To calculate the response magnitude to each stimulus, the mean firing frequency occurring before the onset of the first stimulus (30 min for spontaneous activity, 10 sec for mechanical stimulation of the dura, skin and cornea) was subtracted from the mean firing frequency that occurred throughout the duration of each stimulus. […] A neuron was considered activated when its mean firing rate after CSD exceeded its mean baseline activity by 2 standard deviations of that mean for a period >10 min, which translated to ≥33% increase in activity. […] Mean firing rates of respective values were compared using nonparametric statistics (Wilcoxon signed-ranks test). Two-tailed level of significance was set at 0.05.

B1: fremanezumab (antibody)
heavy: EVQLVESGGGLVQPGGSLRLSCAASGFTFSNYWISWVRQAPGKGLEWVAEIRSESDASATHYAEAVKGRFTISRDNAKNSLYLQMNSLRAEDTAVYYCLAYFDYGLAIQNYWGQGTLVTVSSASTKGPSVFPLAPCSRSTSESTAALGCLVKDYFPEPVTVSWNSGALTSGVHTFPAVLQSSGLYSLSSVVTVPSSNFGTQTYTCNVDHKPSNTKVDKTVERKCCVECPPCPAPPVAGPSVFLFPPKPKDTLMISRTPEVTCVVVDVSHEDPEVQFNWYVDGVEVHNAKTKPREEQFNSTFRVVSVLTVVHQDWLNGKEYKCKVSNKGLPSSIEKTISKTKGQPREPQVYTLPPSREEMTKNQVSLTCLVKGFYPSDIAVEWESNGQPENNYKTTPPMLDSDGSFFLYSKLTVDKSRWQQGNVFSCSVMHEALHNHYTQKSLSLSPGK
light: EIVLTQSPATLSLSPGERATLSCKASKRVTTYVSWYQQKPGQAPRLLIYGASNRYLGIPARFSGSGSGTDFTLTISSLEPEDFAVYYCSQSYNYPYTFGQGTKLEIKRTVAAPSVFIFPPSDEQLKSGTASVVCLLNNFYPREAKVQWKVDNALQSGNSQESVTEQDSKDSTYSLSSTLTLSKADYEKHKVYACEVTHQGLSSPVTKSFNRGEC
notes: humanized anti-CGRP antagonist antibody, vectors ATCC PTA-6867 and PTA-6866
difference in HT neurons activated by CSD versus isotype-conAb (2/14 versus 13/13): 86% | HT neuronal responses to dural indentation with VFH before CSD (female rats): 10.5±1.6 | HT neurons with expansion of dural receptive fields after CSD (female rats): 0/6 | HT neurons with expansion of facial receptive fields after CSD (female rats): 0/6 | firing of HT neurons before CSD (female rats, 6 HT neurons): 3.3±1.7 spikes/sec | firing of HT neurons after CSD (female rats, 6 HT neurons, 2 hours after CSD, p=0.45): 5.0±3.4 spikes/sec | HT neuronal response to brushing the cornea after CSD (female rats, 6 HT neurons, p=0.51): remained unchanged | expected CSD-induced activation of the HT neurons (female rats): prevented | HT neuronal responses to dural indentation with VFH after CSD (female rats, 2 hours after CSD, p=0.72): 8.1±6.4 | HT neuronal responses to brush, pressure and pinch of the skin after CSD (male and female rats, 2 hours after CSD, p=0.35, 0.63, 0.78): remained unchanged | HT neurons activated by CSD (case-by-case analysis) (male and female rats, activated/tested): 2/14 | HT neuronal responses to dural indentation with VFH before CSD (male rats): 1.8±0.6 | HT neurons with expansion of dural receptive fields after CSD (male rats): 2/8 | HT neurons with expansion of facial receptive fields after CSD (male rats): 2/8 | HT neuronal response to brushing the cornea before CSD (male rats, 8 HT neurons): 10.8±3.3 spikes/sec | firing of HT neurons before CSD (male rats, 8 HT neurons): 1.2±0.6 spikes/sec | firing of HT neurons after CSD (male rats, 8 HT neurons, 2 hours after CSD, p=0.29): 1.9±1.5 spikes/sec | HT neuronal response to brushing the cornea after CSD (male rats, 8 HT neurons, p=0.60): 9.4±1.8 spikes/sec | expected CSD-induced activation of the HT neurons (male rats): prevented | HT neuronal responses to dural indentation with VFH after CSD (male rats, 2 hours after CSD, p=0.83): 1.9±1.5

From patent US10766952B2, “Methods for reducing migraine frequency in a subject in need thereof” (Beth Israel Deaconess Medical Center, Inc., priority 2017, dated 2020)
